Test results from the supplement of paper PMC10724198.
± gives the standard deviation of the averaged measurements.

Test system: Saccharomyces cerevisiae
Assay: protein stability index of tFT-peptide fusion (C-terminal peptide) (PSI (0-1 scale)); higher = more stable (slower turnover)
Settings: temperature: 30 C
Method: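 MPS profiling in S. cerevisiae of the yeast C-terminome library: the last 12 aa of each annotated ORF are fused to the C-terminus of a sfGFP-mCherry timer, after a GGGS linker. Cells are FACS-sorted into 8 mCherry/sfGFP bins and deep-sequenced. PSI runs from 0 (unstable) to 1 (stable); wild type and das1Δ backgrounds, two technical replicates each.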

[1] = genetic background: das1 deletion

Row | Sequence | protein stability index [1] | protein stability index (genetic background: wild type)
1 | PQCGQVLSKGST [YGL132W C-terminal 12 aa] | 0.703 ± 0.0092 | 0.69 ± 0.063
2 | KNGYGNSNASWW [DBP1 C-terminal 12 aa] | 0.717 ± 0.031 | 0.691 ± 0.027
3 | KNVMRRGQFMKR [GRC3 C-terminal 12 aa] | 0.681 ± 0.013 | 0.753 ± 0.048
4 | LIHNFNSRYCHE [LEE1 C-terminal 12 aa] | 0.725 ± 0.0078 | 0.691 ± 0.0088
5 | AAELRDISQCDV [OPI8 C-terminal 12 aa] | 0.682 ± 0.024 | 0.69 ± 0.088
6 | DSEDDNDTSSES [PRP38 C-terminal 12 aa] | 0.682 ± 0.026 | 0.6733 ± 0.0012
7 | QPYRSGTLGKRR [AIR2 C-terminal 12 aa] | 0.674 ± 0.035 | 0.6998 ± 0.004
8 | LSPSYSCRYHGR [YPL152W-A C-terminal 12 aa] | 0.7126 ± 0.0044 | 0.6832 ± 0.004
9 | EGVRNRRKALKK [ARO3 C-terminal 12 aa] | 0.684 ± 0.027 | 0.669 ± 0.022
10 | NDKGEQVVGGNE [TMA16 C-terminal 12 aa] | 0.663 ± 0.042 | 0.717 ± 0.04
11 | QSRYDNSRANRR [RAT1 C-terminal 12 aa] | 0.7257 ± 0.0043 | 0.731 ± 0.099
12 | QSADAAGVVKKH [GCN20 C-terminal 12 aa] | 0.683 ± 0.011 | 0.726 ± 0.028
13 | EKWKINKKETVE [MOD5 C-terminal 12 aa] | 0.697 ± 0.03 | 0.7095 ± 0.0026
14 | LTWSLAYSGAFS [ACF2 C-terminal 12 aa] | 0.7217 ± 0.0012 | 0.686 ± 0.013
15 | KAQRSIWGKKSQ [ERV46 C-terminal 12 aa] | 0.6703 ± 0.0035 | 0.682 ± 0.018
16 | LPFQKLKHLIKK [MRX11 C-terminal 12 aa] | 0.707 ± 0.031 | 0.706 ± 0.046
17 | AGVNSARGVLRI [SFT2 C-terminal 12 aa] | 0.6898 ± 0.0045 | 0.71 ± 0.023
18 | QLKACQEAARQY [MIX17 C-terminal 12 aa] | 0.675 ± 0.025 | 0.66 ± 0.031
19 | DDNDDSDEREIW [UBR1 C-terminal 12 aa] | 0.699 ± 0.031 | 0.71 ± 0.029
20 | NPKNLINDVRRT [CVM1 C-terminal 12 aa] | 0.704 ± 0.011 | 0.635 ± 0.025
21 | TSTLAVIPYPAF [YLR466C-B C-terminal 12 aa] | 0.7177 ± 0.0022 | 0.755 ± 0.045

Row | Sequence | protein stability index [1] | protein stability index (genetic background: wild type)
22 | VREYNKYCEAIL [VPS13 C-terminal 12 aa] | 0.687 ± 0.01 | 0.667 ± 0.033
23 | IEIVKDAKRKGY [MRP21 C-terminal 12 aa] | 0.70154 ± 7.3e-05 | 0.674 ± 0.017
24 | MTGILKDYSHRV [TFA2 C-terminal 12 aa] | 0.715 ± 0.0083 | 0.723 ± 0.063
25 | GKEHRFGLHIRS [DPH6 C-terminal 12 aa] | 0.6887 ± 0.0022 | 0.698 ± 0.026
26 | LSKDGIYTAVPN [PAU23 C-terminal 12 aa] | 0.6917 ± 0.0018 | 0.702 ± 0.0078
27 | VEVEYLLRRLEE [ARO7 C-terminal 12 aa] | 0.691 ± 0.013 | 0.6589 ± 0.0044
28 | TGKDVMKGALGF [SRO7 C-terminal 12 aa] | 0.6953 ± 0.0023 | 0.667 ± 0.024
29 | MPGGMPGMPGMM [HSP60 C-terminal 12 aa] | 0.7 ± 0.00077 | 0.709 ± 0.0041
30 | LPYRMLIRMYPV [YEL014C C-terminal 12 aa] | 0.5232 ± 0.0025 | 0.5345 ± 0.0047
31 | GEDEENTVDSQY [YOL131W C-terminal 12 aa] | 0.688 ± 0.015 | 0.6803 ± 0.0017
32 | CFLIGSSDTTSL [OPI6 C-terminal 12 aa] | 0.7045 ± 0.0014 | 0.691 ± 0.028
33 | KSLAECQELLKN [TPD3 C-terminal 12 aa] | 0.687 ± 0.0072 | 0.663 ± 0.061
34 | DEERPSKKPKVE [POB3 C-terminal 12 aa] | 0.7314 ± 0.0054 | 0.745 ± 0.02
35 | QKENQYHPRRNQ [YML009W-B C-terminal 12 aa] | 0.7123 ± 0.0032 | 0.691 ± 0.039
36 | DDGTKNFIFKNK [ECM23 C-terminal 12 aa] | 0.7072 ± 0.0034 | 0.706 ± 0.031
37 | VAVASASSSASS [VPH1 C-terminal 12 aa] | 0.683 ± 0.019 | 0.682 ± 0.032
38 | SESLSDSDLEIL [RAD24 C-terminal 12 aa] | 0.7105 ± 0.0068 | 0.666 ± 0.0085
39 | DFPHEAVVREML [TVP18 C-terminal 12 aa] | 0.7167 ± 0.0023 | 0.6914 ± 0.0026
40 | SSFSLSLPRLNQ [SPT7 C-terminal 12 aa] | 0.6893 ± 0.0022 | 0.675 ± 0.028
41 | DNYLKYIKALLL [MSH2 C-terminal 12 aa] | 0.71 ± 0.029 | 0.445 ± 0.026
42 | ELRERLLRPSKK [YPL245W C-terminal 12 aa] | 0.7246 ± 0.0023 | 0.771 ± 0.032

Row | Sequence | protein stability index [1] | protein stability index (genetic background: wild type)
43 | EENENDCDSEIQ [RTS1 C-terminal 12 aa] | 0.7103 ± 0.0013 | 0.696 ± 0.0094
44 | LIFQRKYTAKEF [DTR1 C-terminal 12 aa] | 0.6863 ± 0.004 | 0.678 ± 0.035
45 | GLNEVTRLIKGL [HTS1 C-terminal 12 aa] | 0.695 ± 0.011 | 0.641 ± 0.027
46 | FIVAEYIQQKKV [SRB4 C-terminal 12 aa] | 0.694 ± 0.018 | 0.3321 ± 0.00069
47 | KPTASSSRKMFR [DUO1 C-terminal 12 aa] | 0.7169 ± 0.0025 | 0.722 ± 0.051
48 | VEFKYPEEIFHG [TPP1 C-terminal 12 aa] | 0.712 ± 0.012 | 0.6782 ± 0.0027
49 | NGKTIKDATDNK [COX19 C-terminal 12 aa] | 0.669 ± 0.015 | 0.6957 ± 0.0059
50 | SRVDEVVTKYSH [AAH1 C-terminal 12 aa] | 0.7 ± 0.029 | 0.667 ± 0.028
51 | FLDDVLNGREII [YNL058C C-terminal 12 aa] | 0.708 ± 0.011 | 0.752 ± 0.015
52 | QIFSLPAVTYNK [REC102 C-terminal 12 aa] | 0.693 ± 0.018 | 0.743 ± 0.055
53 | AGADNTARLWTT [ERB1 C-terminal 12 aa] | 0.722 ± 0.014 | 0.736 ± 0.056
54 | LFYNIRCLGKQF [YAR030C C-terminal 12 aa] | 0.707 ± 0.011 | 0.3967 ± 0.0018
55 | RSHSRKNSLSLL [SPO24 C-terminal 12 aa] | 0.72 ± 0.021 | 0.734 ± 0.028
56 | LEKLCQKQSSTK [CMC1 C-terminal 12 aa] | 0.724 ± 0.022 | 0.712 ± 0.066
57 | PCALYFKDHTAY [HUA2 C-terminal 12 aa] | 0.699 ± 0.021 | 0.7209 ± 0.0011
58 | INKDMTKKKMKF [MFG1 C-terminal 12 aa] | 0.689 ± 0.029 | 0.677 ± 0.029
59 | LTVLCVILGYVL [UTR2 C-terminal 12 aa] | 0.5761 ± 0.00066 | 0.645 ± 0.048
60 | LLEDEDRTYNYT [KCH1 C-terminal 12 aa] | 0.6892 ± 0.0059 | 0.718 ± 0.069
61 | KKEPGANCCIIL [RHO2 C-terminal 12 aa] | 0.743 ± 0.02 | 0.72 ± 0.021
62 | FKMCETEMQPIK [YGR201C C-terminal 12 aa] | 0.7043 ± 0.0065 | 0.669 ± 0.013
63 | KGISIVESTFIS [YDR222W C-terminal 12 aa] | 0.704 ± 0.027 | 0.673 ± 0.022

Row | Sequence | protein stability index [1] | protein stability index (genetic background: wild type)
64 | VEDQSIEVKKEK [YPC1 C-terminal 12 aa] | 0.684 ± 0.035 | 0.7136 ± 0.007
65 | KQKAFIQPKLVF [UTP4 C-terminal 12 aa] | 0.691 ± 0.018 | 0.692 ± 0.017
66 | AVGPRQTGEECR [YER088W-B C-terminal 12 aa] | 0.695 ± 0.0098 | 0.66899 ± 0.00042
67 | VYKDWEMNLMLS [ARG81 C-terminal 12 aa] | 0.727 ± 0.025 | 0.656 ± 0.024
68 | CLQTESETDIET [LIF1 C-terminal 12 aa] | 0.661 ± 0.0085 | 0.674 ± 0.013
69 | RQSRERALGIKR [PRP22 C-terminal 12 aa] | 0.6929 ± 0.0054 | 0.701 ± 0.036
70 | RRCDDMLYYIQN [POP4 C-terminal 12 aa] | 0.716 ± 0.021 | 0.662 ± 0.011
71 | VKNVLSKVVPPV [MTC2 C-terminal 12 aa] | 0.688 ± 0.0078 | 0.669 ± 0.04
72 | KRMALFVQEKLA [YFL031C-A C-terminal 12 aa] | 0.717 ± 0.0081 | 0.18 ± 0.0051
73 | NPWGGYSQVQSK [COX5A C-terminal 12 aa] | 0.728 ± 0.02 | 0.688 ± 0.018
74 | DGKVIYELEDKE [GET3 C-terminal 12 aa] | 0.727 ± 0.021 | 0.6753 ± 0.0058
75 | NQGSDVSFNEED [TOP2 C-terminal 12 aa] | 0.709 ± 0.02 | 0.685 ± 0.045
76 | FDRVRLLVDKIT [HIR3 C-terminal 12 aa] | 0.683 ± 0.0076 | 0.234 ± 0.0042
77 | SELKGFVDEVDL [TFC1 C-terminal 12 aa] | 0.7183 ± 0.0033 | 0.721 ± 0.037
78 | EVKVDKVVYEKE [VPS29 C-terminal 12 aa] | 0.683 ± 0.067 | 0.725 ± 0.04
79 | WEDKYPEMGVTV [YHL044W C-terminal 12 aa] | 0.6911 ± 0.003 | 0.706 ± 0.0089
80 | DSDNAAPLHDEL [KRE5 C-terminal 12 aa] | 0.687 ± 0.017 | 0.685 ± 0.048
81 | GIPNLLLPPHLV [TRM112 C-terminal 12 aa] | 0.707 ± 0.014 | 0.691 ± 0.007
82 | DFVYNEEDFEKL [NOT5 C-terminal 12 aa] | 0.718 ± 0.015 | 0.681 ± 0.014
